Where no end group is shown, it is not given here. [ ]: non-standard residue; d: D form.

For one series, the target named is Aβ (1-42) (UniProt P05067 672-713). Put plainly: cell-based or functional assay.
Series [1] deals with the molecule itself. Put plainly: self-association: PICUP cross-linking of the peptide alone at 36 µM, gel, silver staining.
Description: Peptides were also cross-linked by PICUP and analyzed for self-association. […] Cross-linked samples were then heated at 95° C. for 5 min and separated on a 10-20% Tris-Tricine gradient gel. Peptides were visualized by silver staining (SilverStain Kit, Pierce, Rockford, Ill.).
Peptide self-assembly was probed by photo-induced crosslinking (PICUP) followed by gel electrophoresis.

B1: CG2 (peptide)
peptide: cyclo(SKV[dP]PTIAALLSPYSYSQ)
SMILES: CC[C@H](C)[C@@H]1NC(=O)[C@H]([C@@H](C)O)NC(=O)[C@@H]2CCCN2C(=O)[C@H]2CCCN2C(=O)[C@H](C(C)C)NC(=O)[C@H](CCCCN)NC(=O)[C@H](CO)NC(=O)[C@H](CCC(N)=O)NC(=O)[C@H](CO)NC(=O)[C@H](Cc2ccc(O)cc2)NC(=O)[C@H](CO)NC(=O)[C@H](Cc2ccc(O)cc2)NC(=O)[C@@H]2CCCN2C(=O)[C@H](CO)NC(=O)[C@H](CC(C)C)NC(=O)[C@H](CC(C)C)NC(=O)[C@H](C)NC(=O)[C@H](C)NC1=O
On to B1, for which the “Aβ toxicity, MTS assay with primary mouse neuronal cultures (10 µM Aβ)” value (“Aβ toxicity, MTS assay” below) with Aβ (1-42) came out at 10 µM.

Turning to Ac-PRRYTIAALLSPYSWS-NH2 (also called 16-mer linear peptide) [G16], the binding result in series [1] was “binds”.

SKVVT[dP]PRYTIAALLSPYSYSQ [LG3]: the “Aβ toxicity, MTS assay” value with Aβ (1-42) stood at 10 µM.

B2: CG3 (peptide)
peptide: cyclo(SKVVT[dP]PRYTIAALLSPYSYSQ)
SMILES: CC[C@H](C)[C@@H]1NC(=O)[C@H]([C@@H](C)O)NC(=O)[C@H](Cc2ccc(O)cc2)NC(=O)[C@H](CCCNC(=N)N)NC(=O)[C@@H]2CCCN2C(=O)[C@H]2CCCN2C(=O)[C@H]([C@@H](C)O)NC(=O)[C@H](C(C)C)NC(=O)[C@H](C(C)C)NC(=O)[C@H](CCCCN)NC(=O)[C@H](CO)NC(=O)[C@H](CCC(N)=O)NC(=O)[C@H](CO)NC(=O)[C@H](Cc2ccc(O)cc2)NC(=O)[C@H](CO)NC(=O)[C@H](Cc2ccc(O)cc2)NC(=O)[C@@H]2CCCN2C(=O)[C@H](CO)NC(=O)[C@H](CC(C)C)NC(=O)[C@H](CC(C)C)NC(=O)[C@H](C)NC(=O)[C@H](C)NC1=O
On to B2, for which, in the series with Aβ (1-42), the “Aβ toxicity, MTS assay” value worked out at 10 µM.

For the origin of these results see US20160108093A1 (WISCONSIN ALUMNI RESEARCH FOUNDATION, published 2016).
